Test results from publication PMC11752098.

B1: wild-type GABRA2 (α2 subunit of the γ-aminobutyric acid A receptor), FLAG-tagged [human] / GABRG2 (γ2 subunit of the GABA-A receptor) [human (endogenous in 293T)] (parent)
chain 1: NIQEDEAKNNITIFTRILDRLLDGYDNRLRPGLGDSITEVFTNIYVTSFGPVSDTDMEYTIDVFFRQKWKDERLKFKGPMNILRLNNLMASKIWTPDTFFHNGKKSVAHNMTMPNKLLRIQDDGTLLYTMRLTVQAECPMHLEDFPMDAHSCPLKFGSYAYTTSEVTYIWTYNASDSVQVAPDGSRLNQYDLLGQSIGKETIKSSTGEYTVMTAHFHLKRKIGYFVIQTYLPCIMTVILSQVSFWLNRESVPARTVFGVTTVLTMTTLSISARNSLPKVAYATAMDWFIAVCYAFVFSALIEFATVNYFTKRGWAWDGKSVVNDKKKEKASVMIQNNAYAVAVANYAPNLSKDPVLSTISKSATTPEPNKKPENKPAEAKKTFNSVSKIDRMSRIVFPVLFGTFNLVYWATYLNREPVLGVSP
chain 2: QKSDDDYEDYASNKTWVLTPKVPEGDVTVILNNLLEGYDNKLRPDIGVKPTLIHTDMYVNSIGPVNAINMEYTIDIFFAQTWYDRRLKFNSTIKVLRLNSNMVGKIWIPDTFFRNSKKADAHWITTPNRMLRIWNDGRVLYTLRLTIDAECQLQLHNFPMDEHSCPLEFSSYGYPREEIVYQWKRSSVEVGDTRSWRLYQFSFVGLRNTTEVVKTTSGDYVVMSVYFDLSRRMGYFTIQTYIPCTLIVVLSWVSFWINKDAVPARTSLGITTVLTMTTLSTIARKSLPKVSYVTAMDLFVSVCFIFVFSALVEYGTLHYFVSNRKPSKDKDKKKKNPLLRMFSFKAPTIDIRPRSATIQMNNATHLQERDEEYGYECLDGKDCASFFCCFEDCRTGAWRHGRIHIRIAKMDSYARIFFPTAFCLFNLVYWVSYLYL
B2: wild-type GABRA2 (α2 subunit of the γ-aminobutyric acid A receptor), FLAG-tagged [human] / GABRB3 (β3 subunit of the GABA-A receptor) [human (endogenous in 293T)] (parent)
chain 1: B1 chain 1
chain 2: QSVNDPGNMSFVKETVDKLLKGYDIRLRPDFGGPPVCVGMNIDIASIDMVSEVNMDYTLTMYFQQYWRDKRLAYSGIPLNLTLDNRVADQLWVPDTYFLNDKKSFVHGVTVKNRMIRLHPDGTVLYGLRITTTAACMMDLRRYPLDEQNCTLEIESYGYTTDDIEFYWRGGDKAVTGVERIELPQFSIVEHRLVSRNVVFATGAYPRLSLSFRLKRNIGYFILQTYMPSILITILSWVSFWINYDASAARVALGITTVLTMTTINTHLRETLPKIPYVKAIDMYLMGCFVFVFLALLEYAFVNYIFFGRGPQRQKKLAEKTAKAKNDRSKSESNRVDAHGNILLTSLEVHNEMNEVSGGIGDTRNSAISFDNSGIQYRKQSMPREGHGRFLGDRSLPHKKTHLRRRSSQLKIKIPDLTDVNAIDRWSRIVFPFTFSLFNLVYWLYYVN

Variants of: B1
Assay: co-immunoprecipitation (anti-FLAG beads) with Western blot quantification
Conditions: with GABRG2 (γ2 subunit of the GABA-A receptor) [human (endogenous in 293T)]; 293T cells transfected with FLAG-tagged GABRA2-WT or GABRA2-MUT; parent: 1; read off a plot

**Q.** How did the ratio to parent turn out when chain 1 NIQEDEAKNNITIFTRILDRLLDGYDNRLRPGLGDSITEVFTNIYVTSFGPVSDTDMEYTIDVFFRQKWKDERLKFKGPMNILRLNNLMASKIWTPDTFFHNGKKSVAHNMTMPNKLLRIQDDGTLLYTMRLTVQAECPMHLEDFPMDAHSCPLKFGSYAYTTSEVTYIWTYNASDSVQVAPDGSRLNQYDLLGQSIGKETIKSSTGEYTVMTAHFHLKRKIGYFVIQTYLPCIMTVILSQVSFWLNRESVPARTVFGVTTVLTMTTLSISARNSLPKVVYATAMDWFIAVCYAFVFSALIEFATVNYFTKRGWAWDGKSVVNDKKKEKASVMIQNNAYAVAVANYAPNLSKDPVLSTISKSATTPEPNKKPENKPAEAKKTFNSVSKIDRMSRIVFPVLFGTFNLVYWATYLNREPVLGVSP [chain 1 A280V] was run?
**A.** Its ratio to parent is 0.88.

Variants of: B2
Assay: as above
Conditions: with GABRB3 (β3 subunit of the GABA-A receptor) [human (endogenous in 293T)]; 293T cells transfected with FLAG-tagged GABRA2-WT or GABRA2-MUT; parent: 1; read off a plot

**Q.** How did the ratio to parent turn out when chain 1 NIQEDEAKNNITIFTRILDRLLDGYDNRLRPGLGDSITEVFTNIYVTSFGPVSDTDMEYTIDVFFRQKWKDERLKFKGPMNILRLNNLMASKIWTPDTFFHNGKKSVAHNMTMPNKLLRIQDDGTLLYTMRLTVQAECPMHLEDFPMDAHSCPLKFGSYAYTTSEVTYIWTYNASDSVQVAPDGSRLNQYDLLGQSIGKETIKSSTGEYTVMTAHFHLKRKIGYFVIQTYLPCIMTVILSQVSFWLNRESVPARTVFGVTTVLTMTTLSISARNSLPKVVYATAMDWFIAVCYAFVFSALIEFATVNYFTKRGWAWDGKSVVNDKKKEKASVMIQNNAYAVAVANYAPNLSKDPVLSTISKSATTPEPNKKPENKPAEAKKTFNSVSKIDRMSRIVFPVLFGTFNLVYWATYLNREPVLGVSP [chain 1 A280V] was run?
**A.** Its ratio to parent is 0.87.
